Assay results as given in patent US20190367619A1 (ARGENX, published 2019).

Legend:
[1] = molecular target: T1, human galectin-10-His (recombinant human galectin-10 with TEV-cleavable N-terminal His-tag) (human); experiment: BLI tandem on galectin-10-His; competitor: saturating 6A08 mIgG1 (10 ug/mL)
T1 construct: SEC-MALLS: dimer in solution; also called Gal10-His; humanGal10-His
T1 chain: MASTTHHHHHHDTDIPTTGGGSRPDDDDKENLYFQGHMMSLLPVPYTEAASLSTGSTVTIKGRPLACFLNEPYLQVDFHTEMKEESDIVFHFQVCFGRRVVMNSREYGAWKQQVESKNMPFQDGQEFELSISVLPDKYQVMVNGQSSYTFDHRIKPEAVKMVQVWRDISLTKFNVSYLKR
Method in brief: (§1)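 Read-out is the BLI wavelength shift (nm) from the competitor antibody, measured after the captured antigen has already been saturated by another antibody. Absence of shift means both antibodies share the binding site.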

[2] = molecular target: T1, human galectin-10-His (recombinant …); experiment: BLI tandem on galectin-10-His; competitor: saturating 2F09 mIgG1 (10 ug/mL)
Method in brief: as §1

[3] = molecular target: T1, human galectin-10-His (recombinant …); experiment: BLI tandem on galectin-10-His; competitor: saturating 1D11 mIgG1 (10 ug/mL)
Method in brief: as §1

[4] = molecular target: T2, TEV-cleaved wild-type recombinant human galectin-10 (soluble, in Fab complexes, or as recombinant galectin-10 … (human, UniProt Q05315 1-142)); experiment: cell-based or functional assay
T2 sequence: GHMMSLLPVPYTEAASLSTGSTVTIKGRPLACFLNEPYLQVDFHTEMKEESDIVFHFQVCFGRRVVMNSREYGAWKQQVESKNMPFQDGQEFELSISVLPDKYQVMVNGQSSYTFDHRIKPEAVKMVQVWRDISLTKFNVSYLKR

[5] = molecular target: T2, TEV-cleaved wild-type recombinant human …; experiment: cell-based or functional assay; remark: listed apart in the source
[6] = molecular target: T1, human galectin-10-His (recombinant …); experiment: BLI tandem on galectin-10-His; competitor: saturating 6F06 mIgG1 (10 ug/mL)
Method in brief: as §1

[7] = molecular target: T1, human galectin-10-His (recombinant …); experiment: BLI tandem on galectin-10-His; competitor: saturating 6E10 mIgG1 (10 ug/mL)
Method in brief: as §1

[8] = molecular target: T1, human galectin-10-His (recombinant …); experiment: BLI tandem on galectin-10-His; competitor: saturating 6A05 mIgG1 (10 ug/mL)
Method in brief: as §1

[9] = molecular target: T1, human galectin-10-His (recombinant …); experiment: BLI tandem on galectin-10-His; isotype control as saturating antibody (10 ug/mL)
Method in brief: as §1

[10] = molecular target: T1, human galectin-10-His (recombinant …); experiment: SPR Biacore T3000, mouse IgG1 captured by anti-mouse Fc, galectin-10-His as analyte
Method in brief: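 Polyclonal anti-mouse Fc on a CM5 chip (8000 RU) captured each mouse IgG1 (1.5 μg/mL) to around 150 RU. Galectin-10-His was then injected as a 1:2 serial dilution from 5 μg/mL in HBS-EP pH7.4. After blank subtraction, kd/KD and Rmax came from a simultaneous ka/kd fit with mass transfer and local Rmax.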

B1: 1D11 mouse IgG1 (antibody, V domains shown)
VH: QVQLVESGGGLVQPGGSLRLSCAASGFTFDDYAMSWVRQAPGKGLEWVSGISWNGGSTYYAESMKGRFTISRDNAKNTLYLQMNSLKSEDTAVYYCAKDRNLGYRLGYPYDYWGQGTQVTVSS
VL: QSVLTQPPSVSGSPGETVTISCAGTSSDVGYGNYVSWYQQLPGMAPRLLIYEVNKRASGITDRFSGSKSGNTASLTISGLQSEDEGDYYCASYRSSNNAVFGGGTHLTVL
notes: VH on mouse IgG1 heavy chain constant domains (CH1-CH2-CH3), VL on mouse lambda light chain constant domain; also called 1D011; 1D11 mIgG1
[1]
  binding signal (nm): 0.01 nm
[2]
  binding signal (nm): 0.02 nm
[3]
  binding signal (nm): 0.06 nm
[4]
  dissolution of in vitro grown Gal10 crystals (spinning disk confocal microscopy): ≤ 90 min
[5]
  100% Inhibition of CLC formation (Conc uM): 0.34 µM
  100% Solubilization of CLC (Conc uM): 7.86 µM
[6]
  binding signal (nm): 0.03 nm
[7]
  binding signal (nm): -0.01 nm
[8]
  binding signal (nm): 0.06 nm
[9]
  binding signal (nm): 1.18 nm
[10]
  Kd: 1 nM
  koff: 0.00529 s⁻¹
